From the RNAGym collection of RNA variant scans (doi:10.1073/pnas.2313332121)
This sample holds only a part of the variants without activity.

B1: TPR 5TU (parent)
chain: GGAUCUUCUCGAUCUAACAAAAAAGACAAAUCUGCCACAAAGCUUGAGAGCAUCUUCGGAUGCAGAGGCGGCAGCCUUCGGUGGCGCGAUAGCGCCAACGUUCUCAACUAUGACACGCAAAACGCGUGCUCCGUUGAAUGGAGUUUAUCAUG

Variants of: B1
Assay: polymerase ribozyme fitness, log enrichment relative to wild type (log ratio); higher = more active; in vitro selection for triplet polymerase activity
Outline: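 A single round of triplicate in vitro selection, including frozen incubation at −7 °C, was applied to PCR-built, transcribed mutant libraries of each subunit of a heterodimeric triplet polymerase ribozyme. Illumina sequencing of input and output libraries retained genotypes with ≥10 input reads and ≥1 read per output. Fitness is the base-2 logarithm of genotype enrichment divided by wild-type enrichment, from inverse-variance-weighted replicate averages.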
For GGAUCUUCUCGAUCUAACAAAAAAGACAAAUCUGCCACAAAGCUUGAAAGCAUCUUCGGAUGCAGAGGCGGCAGCCUUCGGUGGCGUGAUAGCGCCAACGUUCUCAACUAUGACACGCAAAACGCGUGCUCCGUUGAAUGGAGUUUAUCAUG [G48A C87U], the “polymerase ribozyme fitness (log ratio)” value was -0.447.
For GGAUCUUCUCGAUCUAACAAAAAAGACAAAUCUGCCACAAAGCUUGAAAGCAUCUUCGGAUGCAGAGGCGGCAGCCUUCGGUGGAGCGUUAGCGCCAUCGUUCUCAACUAUGGCACACAAAACGCGUGCUCCGUUGAAUGGAGUUUAUCAUG [G48A C85A A89U A98U A113G G117A], the “polymerase ribozyme fitness (log ratio)” value was ≤ -4.2.
In the case of GGAUCUUCUCGAUCUAACAAAAAAGACAAAUCUGCCACAAAGCUUGAAAACAUAUUCGGAUGCAGAGGCGGCAGCCUUCGGUGGCGCGAUAGGGCCAACGUUCACAACUAUGACACGCAAAACGCGUGCUCCGUUGAAUGGAGUUUAUCAUG [G48A G50A C54A C93G U104A], the “polymerase ribozyme fitness (log ratio)” value is reported as ≤ -4.2.
With GGAUCUUCUCGAUCUAACAAAAAAGACAAAUCUGCCACAAAGCUUGAAAGCAUCUUCGGAUGCAGAGGCGGCAGCCUUCGGUGGCGCAAUAGCGCCAACGUUCUCAACUAUGACACGCAAAACGCGUGCUCCGCUGAAUGGAGGUUAUCAUG [G48A G88A U134C U144G] the “polymerase ribozyme fitness (log ratio)” value was ≤ -4.2.
For GGAUCUUCUCGAUCUAACAAAAAAGACAAAUCUGCCACAAAGCUUGAAAGCAUCUUCGGAUGCAGAGGCGGCAGCCUUCGGUGGCGCGAUAGCGCCAACGUUCUCAACUAUGACACGCAAAACGCGUGCUCCUUUGAAUGGAGUUUAUCAUG [G48A G133U], the “polymerase ribozyme fitness (log ratio)” value was -3.81.
For GGAUCUUCUCGAUCUAACAAAAAAGACAAAUCUGCCACAAAGCUUGAAAGCAUCUUCGGAUGCAGAGGCGGCAGCCUUCGGUGGUGCGAUAGCGCCUACGUUCUCAACUAUGACACGCAAAACGCGUGCCCCGUUGAAUGGAGUUUAUCUUG [G48A C85U A97U U130C A150U], the “polymerase ribozyme fitness (log ratio)” value was ≤ -4.2.
With GGAUCUUCUCGAUCUAACAAAAAAGACAAAUCUGCCACAAAGCUUGAAAGCAUCUUCGUAUGCAGAGGCGGCAGCCUUCGGUGGCGUGAUAGCGCCUACGUUCUCAACUAUGACACGCAAAACGCGUGCUCCGUUAAAUGGAGUUUAUCAUG [G48A G59U C87U A97U G136A] the “polymerase ribozyme fitness (log ratio)” value was -1.99.
In the case of GGAUCUUCUCGAUCUAACAAAAAAGACAAAUCUGCCACAAAGCUUGAAAGCAUCUUCGGAUGCAGAGGCGGGAGCCUUCGGUGGCGCGAUAGCGCCAACGUUCUCAACUAUGACACGCAAAACGCGUGCUCCGUUGAAUGGAGUUUAUCAUG [G48A C72G], the “polymerase ribozyme fitness (log ratio)” value is reported as ≤ -4.2.
In the case of GGAUCUUCUCGAUCUAACAAAAAAGACAAAUCUGCCACAAAGCUUGAAAGCAUCUUCGGAUGCAGAAGCGGCAGCCCUCGGUGGCGCGAUAGCGCCUACGUUCUCAACUAUGACACGCAAAACGCGUGCUCCGUUGAAUGGAGUGUAUCUUG [G48A G67A U77C A97U U145G A150U], the “polymerase ribozyme fitness (log ratio)” value is reported as ≤ -4.2.
For GGAUCUUCUCGAUCUAACAAAAAAGACAAAUCUGCCACAAAGCUUGAAAGCAUCUUCGGAUGCAGAGGCGGCAGCCUUCGGUGGCGCGAUAGCGCUAGCGUUCUCAACUAUGACACGCAAAACGCGUGCUCCGUUGAAUGGAGUUUAUCAUG [G48A C96U A98G], the “polymerase ribozyme fitness (log ratio)” value was -0.496.
For GGAUCUUCUCGAUCUAACAAAAAAGACAAAUCUGCCACAAAGCUUGAAAGCAUCUUCGGAUGCAGAGGCGGCAGCGUUCGGUGGCGAGAAAGCGCCAACGUUCUCAACUAUGACACGCAAAACGCGUGCUCCGUUGAAUGGAGUUAAUCAUG [G48A C76G C87A U90A U146A], the “polymerase ribozyme fitness (log ratio)” value was ≤ -4.2.
In the case of GGAUCUUCUCGAUCUAACAAAAAAGACAAAUCUGCCACAAAGCUUGAAAGCAUCUUCGGAUACAGAGGCGGCAGCCUUCGGUGGCGCGAUAGCGCAAACGUUCUCAACUAUGACACGCAAAACGCGUGCUCGGGUGAAUGGAGUUUCUCAUG [G48A G62A C96A C132G U134G A147C], the “polymerase ribozyme fitness (log ratio)” value is reported as ≤ -4.2.
For GGAUCUUCUCGAUCUAACAAAAAAGACAAAUCUGCCACAAAGCUUGAAAGCAUCUUCGAAUGCAGAGGCGGCAGCCUUCGGUGGCACGAUAGCGCCAACGUUCGCAACUUUGACACGCAAAACGCGUGCUCCGUUGAAUGGAGUUUAUCAUG [G48A G59A G86A U104G A110U], the “polymerase ribozyme fitness (log ratio)” value was ≤ -4.2.
For GGAUCUUCUCGAUCUAACAAAAAAGACAAAUCUGCCACAAAGCUUGAAAGCAUCUUCGGAUGCAGAGGCGGCAGCCUUCGGUGGCGCGAUAUCGCCAACGUUCUCAACUAUGACACGCAAAAAGCGUGCUCCGUUGAAUGGAGUUUAUCAUG [G48A G92U C123A], the “polymerase ribozyme fitness (log ratio)” value was -0.538.
In the case of GGAUCUUCUCGAUCUAACAAAAAAGACAAAUCUGCCACAAAGCUUGAAAGCAUCUUCGGAUGCAGAGGCGGCAGUCUUCGGUGGCGAGAUAGGGCCAACGUUCUCAACUAUGACACGCAAAACGCGUGCUCCGUUGAAUGGAGUUUAUCAUG [G48A C75U C87A C93G], the “polymerase ribozyme fitness (log ratio)” value is reported as ≤ -4.2.
With GGAUCUUCUCGAUCUAACAAAAAAGACAAAUCUGCCACAAAGCUUGAAAGCAUCUUCGGAUGCAGAGGCGGCAGCCUUCGGUUGCGCGAUAGCGCCAACGUUCUCAACUAUGACACGCAAAACGCGUGCUCCGCUGAAUGGAGUUUAUCAUG [G48A G83U U134C] the “polymerase ribozyme fitness (log ratio)” value was -1.42.
With GGAUCUUCUCGAUCUAACAAAAAAGACAAAUCUGCCACAAAGCUUGAAAGCAUCUUCGGAUGCAGAGGCGGCAGCCUUCGGUGGCGCGAUAGCGCCAACGUUCUCAAUUAUGACACGCAAAACGCGUGCUCCGUUGAAUGGAGUUUAUCAUG [G48A C108U] the “polymerase ribozyme fitness (log ratio)” value was ≤ -4.2.
In the case of GGAUCUUCUCGAUCUAACAAAAAAGACAAAUCUGCCACAAAGCUUGAAAGCAUCUUCGGAUGCAGAGGCGGCAGCCUUCGGUGGAGCGAUAGCGCCAACGUUCUCAACUAUGACACGCAAAAUGCGUGCUCCGCUGAAUGGAGUUUAUCAUG [G48A C85A C123U U134C], the “polymerase ribozyme fitness (log ratio)” value is reported as -1.46.
For GGAUCUUCUCGAUCUAACAAAAAAGACAAAUCUGCCACAAAGCUUGAAAGCAUCUUCGGAUGCAGAGGCGGCAGCCUUCGGUGGCGCGAUAGCGCCAACGUUCUCAACUAUGACACGCAAAACGCGUGCUCCGUUGAAUGGAGUUUAUUAUG [G48A C149U], the “polymerase ribozyme fitness (log ratio)” value was -1.46.
